How the values were obtained:
Assay in all cases: ELISA, variant from culture supernatant on Ni-NTA plate;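 also: antigenic evaluation by ELISA of constructs expressed at small scale in 96-well plates after transient plasmid transfection of cells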
[1] = target: T1, sc9-10_DS-CAV1_bRSV(RB94)_Fd_hp1_ig1
T1 construct: also called sc-v2
Experimental: (§1) Initial assessment of all constructs were performed using a 96-well microplate format for high throughput expression followed by an ELISA-based antigenic evaluation as described previously 17. […] Plasmid DNA and TrueFect-Max (United BioSystems, MD) were mixed and added to the growing cells, and the 96-well plate incubated at 37° C., 5% CO2. One day post transfection, enriched medium (high glucose DMEM plus 25% ultra-low IgG fetal bovine serum, 2× nonessential amino acids, 1× glutamine) was added to each well, and the 96-well plate was returned to the incubator for continuous culture.

[2] = target: T2, sc9-10_DS-CAV1_bRSV(RB94)_Fd_hp2_ig1
T2 construct: also called sc-v3
Experimental: as §1

[3] = target: T3, RB94 site 0 hRSV DS-Cav1 Long FdPL
T3 construct: also called sc-v22
Experimental: as §1

KXint1 = target: T4, KXint1
T4 construct: also called sc-v29
Experimental: as §1

[4] = target: T5, 391-2-DS-Cav1-BZGJ9 Long S190V
T5 construct: also called sc-v23
Experimental: as §1

[5] = target: T6, sc9-10_DS-CAV1_bRSV(RB94)_Fd_pm1_fp2_ig1
T6 construct: also called sc-v24
Experimental: as §1

391-2-DS-Cav1-IP-4 = target: T7, 391-2-DS-Cav1-IP-4
T7 construct: also called sc-v32
Experimental: as §1

[6] = target: T8, sc9-10_DS-CAV1_bRSV(RB94)_Fd_hp1_fp1_ig1
T8 construct: also called sc-v8
Experimental: as §1

391-2_DS-Cav1-tzsc7 = target: T9, 391-2_DS-Cav1-tzsc7
T9 construct: also called sc-v21
Experimental: as §1

391-2-DS-Cav1-BZGJ9 Long = target: T10, 391-2-DS-Cav1-BZGJ9 Long
T10 construct: also called sc-v17
Experimental: as §1

[7] = target: T11, RB94 hu/bov DS-Cav1 Long FdPL
T11 construct: also called sc-v20
Experimental: as §1

B1: D25 antibody (antibody, V domains shown)
VH: QVQLVQSGAEVKKPGSSVMVSCQASGGPLRNYIINWLRQAPGQGPEWMGGIIPVLGTVHYAPKFQGRVTITADESTDTAYIHLISLRSEDTAMYYCATETALVVSTTYLPHYFDNWGQGTLVTVSS
VL: DIQMTQSPSSLSAAVGDRVTITCQASQDIVNYLNWYQQKPGKAPKLLIYVASNLETGVPSRFSGSGSGTDFSLTISSLQPEDVATYYCQQYDNLPLTFGGGTKVEIK
notes: also called mAb D25
For B1, the ELISA binding value [1] was 2.44, the ELISA binding value [2] was 2.43 and the ELISA binding value [3] was 1.02. The ELISA binding value (KXint1) was 0.416, the ELISA binding value [4] was 1.13 and the ELISA binding value [5] was 1.01. For the same binder, the ELISA binding value (391-2-DS-Cav1-IP-4) was 0.333, the ELISA binding value [6] was 2.17 and the ELISA binding value (391-2_DS-Cav1-tzsc7) was 0.997. The ELISA binding value (391-2-DS-Cav1-BZGJ9 Long) was 1.3.

B2: MPE8 antibody (antibody, V domains shown)
VH: EVQLVESGGGLVKPGGSLRLSCAASGFTFSSYSMNWVRQAPGKGLEWVSSISASSSYSDYADSAKGRFTISRDNAKTSLFLQMNSLRAEDTAIYFCARARATGYSSITPYFDIWGQGTLVTVSS
VL: QSVVTQTPSVSGAPGQRVTISCTGSSSNIGAGYDVHWYQQLPGTAPKLLIYDNNNRPSGVPDRFSASKSGTSASLAITGLQAEDEADYYCQSYDRNLSGVFGTGTKVTVL
notes: also called mAb MPE8
With B2 the ELISA binding value [1] was 2.18, the ELISA binding value [2] was 2.21 and the ELISA binding value [3] was 1.39. It also gave an ELISA binding value (KXint1) of 0.599, an ELISA binding value [4] of 1.19 and an ELISA binding value [7] of 1.38. For the same binder, the ELISA binding value [5] was 0.973, the ELISA binding value (391-2-DS-Cav1-IP-4) was 0.541 and the ELISA binding value [6] was 2.16. It also gave an ELISA binding value (391-2_DS-Cav1-tzsc7) of 1.5 and an ELISA binding value (391-2-DS-Cav1-BZGJ9 Long) of 1.45.

Source: patent publication US20190330277A1 (PIRBRIGHT INSTITUTE, published 2019)
